The results in this text go back to the domain aggregation screens of Martell et al. (2025).

Where only a bound is given, the exact number is not on record here.
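Further: 20 min heating vs room temperature control held 20 min.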

This data set is described as follows: soluble fraction after stress (log2 fold change); higher = more stays soluble; pooled small domains, quantitative proteomics. Conditions: stress: 75 degC.
As to “HMTNYSFIVNENFNNKRIDQVVANHYPKISRTKVNKIIKNNLLKLNGSTFNDPSAKVKLGDQIEFENL”, the “soluble fraction (log2)” value came to 0.434.
As for “HMTPAKQVSAKAERWIDQLGSSDWEKREEAAAELKKLGGAAKSALEKALKNADPEVASKAEELLEALES”, the “soluble fraction (log2)” value was 0.19.
Then “HMTPATVVIPKVAGQTVAEAKETLKNANFEIGEEKDESSDTVEEGRVIRTDPESGTNRKEGTKINLIVSS”, with 0.0198; and “HMTPFVINVDRHGAVIINEKTVDIDEAVVLARQERSQGKSILLAGDKKAPYEAIIRVLDALKQAG”, with -0.758.
Consider “HMTPNATWQDDAQNLLRDLIQHQPVLVQISAAKRLRDQAEQISRITGGETVTREHVEAAGHALGMGVT”, for which the “soluble fraction (log2)” value stood at 0.209.
Then “HMTPNRDDEHLQSLRDYYASNRRIPSLQRIAALLGFSSRSAAVKLMGRLADEGFVERTVDDDAWIPGSRFF”, with -1.14; and “HMTPQDYEYLRKLLKDQSGLDLSVDKQYLLESRLVPLSRKAGLAGIPELVQKMKAGSASLTAQVVEAMTT”, with -0.11; and “HMTPVFGEEETVLQAAVRGIISDTDQWTMEAEAKSMLNQLGFSDYEEKMAHMSGGQKKRVALVNALLTP”, with 0.116.
Then “HMTQDFEPGGQVFSRGEWLTIIRVNKSNGAVSSVTTPNYSFLGYSGTMKVTPDRITDYKAPSAEEAAVAS”, with -0.451; and “HMTQGRVTGDGVNVRSQPNTDSAILTRVSTGKVVELISLKDNWYNVVVNGTKGYIRADYVSPYDG”, with -0.904.
Then “HMTQLPEVPVERGMVLEEVQSGWVGAVTRVEKSGGMHVVALEDRRGKSRSFRLGFGFLLEGQPIRLMPPAP”, with -1.89.
With “HMTRAETPMAFIRAMVEAYTERGLDPNQALRKAQITPSQLKSTNARVTTLQMEWMSETAMREL”, the “soluble fraction (log2)” value was -0.292.
In the case of “HMTRDAQLAALERLMDDPSPVVRKAVLKGVQAAGTEGLLWLQQLSKNQTLGPYALALLTELR”, the “soluble fraction (log2)” value is -0.72.
With “HMTRNGTVTFFNHDKGYGFIKDVLTQESVFVHINSLSEPINEQNKVSFEIEMGPRGSNAINVKLI”, the “soluble fraction (log2)” value is -1.65.
On to “HMTRTEYMAQLEKYLKKLPHKEFQEAITFFNEYFDEAGPEKETAIMEELGSPKEAASELITNILNRHI”, for which the “soluble fraction (log2)” value is -0.433.
In the case of “HMTRTISKVAKELAINIETVRFYERRGLIEQPPKPELGYRHYPDETVNRIRFIKRAQELGFTLEEIANLLS” it was -1.66; in that of “HMTRVDALDQLAAIRFSSHIFAEDQDLRMVVVDGQRIGEGDIVRDEIRLEQITETGVIFEYQGERFPIDV”, -1.45.
As to “HMTRYQHLAMLLEKRIAQGLYRNGERLPSVRSLSAEHGVSISTVQQAYYLLEQKQLIIPQSRSGYYVAPH”, the “soluble fraction (log2)” value is -4.46.
“HMTSEVPVGSNVRIRASTLAGERDFEGTMLPPAGEGLTTLKLVNGYNLSYPSKDVLDIEFLGGAGE”: the “soluble fraction (log2)” value came out at 0.14.
For “HMTSHPTHTILDGKVHVFMRDGSPFWWGGFHFKGKYLRTSTKQKNLDSAKTIAQQWYFQKQTEIASGE”, the “soluble fraction (log2)” value is -2.85.
As for “HMTSKVTVLAVNGRITVSGKEQDETVSVYDTGGRLLYQGESDVINVPRKAMYIVTVSRKSYKVIV”, the “soluble fraction (log2)” value is -1.52.
For “HMTSLAGIERFLASGAIAGVGEAMAHRLVQKFGKETLEIIEKKPSRLTEVAGVGKKTAAKIHASYMEK”, the “soluble fraction (log2)” value is -0.344.
As for “HMTSLGLEGLVNTTAIATSDLRPSGWALAGERKIFVVSEGEFIDNGDKIRILTVDGNRIVVRKETNK”, the “soluble fraction (log2)” value was -0.477.
In the case of “HMTSLTSDEEQIINVLRAEESVYINALATKSKIPLQKLLGLLIQLEFKGLIHSLPGSHYKIV” it was -0.221.
In the case of “HMTSNIIIVPNVVGMTKEQATAALAAAGLNIKLSGVETTDTAAVAVKQKPSANTKVEEGSVVTVEFDLK” it was no less than 1.04; in that of “HMTSPKSRIVSALLASPSRPEELAMRLGEDILTLMRTLTDFEASGIIQRLPDGRYTPTREYHLGLVDK”, -0.12.
For the sequence “HMTSPRRLYALIVEHVGKDGVMHRSDVENVLAKVESEMDVDDLLDQLEINGTIIRRQDGTWQLL”, the “soluble fraction (log2)” value is -0.716.
Then “HMTSRFITTEEGTLYVDADGRKVSGWQTIDGSRYYFDEHGIRQSGTIEVNGETYVLDEDGVL”, with 0.0516.
Then “HMTSRWEIGYNVAKKYYDEHGNLDVERAVYDNFELKKWLNTQRYKNSAGTLAEKYKIKLDELGMNWER”, with -0.214; and “HMTSSQLYLIEEDMEGERLDAFLAEVIADLSRTAIKDLISNGRVLVDGQARKPSYRVKEGEQVLIHVPEAR”, with -0.392; and “HMTSVFQNSDGTWGHLTKTVNPLIYTIEYGRRTGFSSREEAEESYQRSLTSYQDQLSKLKKERD”, with 0.297.
Then “HMTSVPGTVVTNANLRGGPGTNYPIVGKAPAGTTVNVVESTADRTWYYLDTGSWIAAFLVKLS”, with -0.33.
“HMTSVRVPVKKEIWFWAIKESQRDLNEILARFPKMDKWINQEENPTFNQLEKVAKFLRVPFGYMFLDKPPK”: the “soluble fraction (log2)” value was -1.86.
Consider “HMTTETGTVKWFNEGKGFGFIAPDGGGKDLFAHFKEIQGSGFKTLTENQRVQFEVTQGQKGPQASNIRTL”, for which the “soluble fraction (log2)” value amounted to 0.227.
Then “HMTTHEQVAILRRELNGLVGAWHHRTGQAHGVTHSKLRKELGGPPAAVASAAQLSARIEKIRQWAT”, with -0.922; and “HMTTIAQMTGPQRAAVILLVLGEDHGRTIWQEFDDDEIRIITRAMAELGTVDADEVERLMLDFVGKLSS”, with -2.67; and “HMTTIAQNISNYRTRANMTQQQVADKLSVSHHTVSKWELGINTPSVEDMQKLAQVFGVTITELVVD”, with -0.652.
Turning to “HMTTIHVDPEKISKIIGPGGKTIKKIVEETGAKIDIEEDGRVYIAAVNSEEAAKAIDMINGI”, the “soluble fraction (log2)” value amounted to 0.0704.
As to “HMTTIPAGRQQYILSLIRREGTVTVSRLAQELEVSELTIRRDLDQMAARNLVERTHGGATERR”, the “soluble fraction (log2)” value was -1.53.
Then “HMTTKEEAAYQAIRSAIIDGELKPGQSVTIRDLASRFDLGRTPITDAMKHLALDGWLETTTGVGTRV”, with -0.183; and “HMTTLAADFNSDGRVDIGDLSILAGNWGKSRTNEVDFNKYGDADYNGRIDIIDLSILATQFGQTDNSN”, with 0.321; and “HMTTLDTVARQLRDRIREQLDPTGEMSDESLLRTIEEAVYRYSSSGHVLTANEKETVIRRIFHSFR”, with 0.042.
For “HMTTMNSADLIKELEKAGWTLRGVKGSHHIYTHPARGGHLSVPHPKKDLGAGLARQLRKQAGL”, the “soluble fraction (log2)” value is -0.032.
Turning to “HMTTPAAISKIKKLEEAKRLLATTTYSMKEIAVKLKYKSHTHFGMDFKNNTGMTPAEYRKAIKAKREKQMN”, the “soluble fraction (log2)” value was -1.96.
Then “HMTTQERVSYSAFINDVETGRVAKVVISGYTIEGTRTNNSSFVTERPYGVDSNLSEVLMQNSVSIEGKA”, with -0.122.
Regarding “HMTTQVNTVKIQLANGYEMTVLTSKTNVKEILEDNNIILENNEKVTPNIDEEISSNKTIKITDKSN”, the “soluble fraction (log2)” value was 0.055.
For the sequence “HMTTTSGLIKTIQTGRRKLGMDDETYRALLADVSGGKTSSKDLNAYQLKEVLRRMREAGFRS”, the “soluble fraction (log2)” value came to 0.58.
Turning to “HMTVDAVALGRRVRHLRKQAGLTLDQLAERTGVSGSHLSLVENARREPRLSLVQRIAEVLGVPVEDL”, the “soluble fraction (log2)” value is -1.49.
On to “HMTVGEKIQYYRKKIGLSQEELGQKMLLSRQTISLWEMDKTLPTVDNLLRLKEIFSVSIDELLSENEPK”, for which the “soluble fraction (log2)” value is -1.31.
With “HMTVKNFNDLPGFKNENLAELKAMGITTISELAEALNDGGKIKEIIKNLSGVGPKTAEKWKDAIG”, the “soluble fraction (log2)” value is no less than 1.04.
With “HMTVKVPDLRGKTLAEMQRILDDAGLKYEINDSTFSRTAIPGTVREVIPAPGSEVKLGRILFIAINGF”, the “soluble fraction (log2)” value is -2.19.
Consider “HMTVLIDEQSSDGLLKITVTANTAVKSITIADELLEDKEQLEDYLILVLNKAIARANQVNQTELDAVAK”, for which the “soluble fraction (log2)” value is 0.0536.
In the case of “HMTVPAGIVLSSIRQDGDVLHIRGTAQSTERLNFFRNSFSASWGSPAQNGKRKADPVTGLVDFTISLK”, the “soluble fraction (log2)” value is -0.758.
“HMTVPMKILILEDEQRNAMRLIRLLNDIDTTFIIEGPLTNIKEAVDFFQSGKTTDLILADIRL”: the “soluble fraction (log2)” value was -0.254.
In the case of “HMTVSADQTTADAVIKLIDAIGTVSKNSGSAISAARSGYDALTDAQKKLVTNYNKLTQAEQVFSSLS” it was 0.494; in that of “HMTVSLTDVPFVPEILDRLERPELDVLLAILNGATNTFDLAAKTGRSRDELDEVLDRLTTLGLIER”, -0.532.
In the case of “HMTVTLTTLRNGSTGAQVKTLQRLLSAMDYYNGETDGKFGISTAAAVKAFQRAKRLTVDGIVGKNTWTALL” it was -1.2; in that of “HMTVTMADISQAYNEKRYLTTISLSNTYLTFAKPTTELLSIRYRTYFIIGKYAESLTEIAKL”, 0.294; in that of “HMTVTTDITQYFLQENGLLNGPNARQLRQKIGETLNIGYTNGKQLLKRAQQFGLTRDQILTALKK”, -0.638.
Then “HMTVVIKVQASQLESWKSSAGTEIKAKLIAVEDEKTYLFVTETGKTIRATAAQLDESSVSRARKLAGL”, with -2.37; and “HMTYGYFELKAKNLDSLKQFLKGIAQVESIEEENNGLKVFLKNELESEELSEKLAEAKIFVSHLAKKK”, with -0.265; and “HMTYKPAADFKPSDTSSLKEGMKVEHPKFGFGTVMKMEEVGTERKARINFADFGEKTLLLSFAKLKIHEN”, with -0.256.
In the case of “HMTYNEYPEKEMQDLIDKSISQQEQAASQYGYSLGDYVTARYGFQSESDFREYVQGLAEDYMKEKI”, the “soluble fraction (log2)” value was -0.476.
On to “HMTYQHQSIIHRRTRGAILTAAKELLAESGISGTNMIEIADRAQVSRASLYNHFRDKHEVFLALVES”, for which the “soluble fraction (log2)” value is -0.591.
In the case of “HMTYSAWIEKAYSELEKKGITEAELSDALDKRGINLEDLKLMGPDEAVKYQSEVEGVVLELSKSKE” it was 0.154.
In the case of “HMTYSEEEIERDLYVRGTLYQIGDLVENKIDGTSGEIVRRGPNYVQYSDGENFYKAFLHSIQEV” it was 0.0161.
Regarding “HMTYTMVAYGSQGDAVRQLQSELNRHGYQLDEDGVFGKKTRAAVRDYQKKNSLRLDGIAGDETWGSLLA”, the “soluble fraction (log2)” value came to 0.696.
As for “HMTYTPRAGSLASQVIGFFRHNPDEELLLDDITDKFDATRGNIHTLLAEAVRFKLLARYRNDDGDYVYKPG”, the “soluble fraction (log2)” value is -3.06.
Then “HMVAADTVQVPDVTGKTVADAKQALISAGLQVGTVTAKDGKETANTILETSPAAGTSVDKGSKVNLVYSTG”, with 0.00808; and “HMVAAITDLPVKSVNGRQMYYYVVRKGETVYSLTHTLGITHDRLVKANRSVEDGLRAGQILYFPVSEFG”, with -2.95.
